{
  "source": "the supplement of paper PMC10567573",
  "parents": {"B1": {"name": "WDR88 (parent)", "chain": "LLTITKAHSNAISNCCFTFSGHFL"}, "B2": {"name": "ADAMTSL2 (parent)", "chain": "KKPPEESTCFERPCFKWYTSPWSE"}},
  "data": [
    {"variants_of": "B1", "test": "protein stability index of a GFP-peptide fusion (GPS, HEK-293T) (PSI 1-6); higher = more stable", "settings": "c terminus: a fixed tail appended", "values": [
      {"variant": "LLTITKAHSNAISNCCFTFQGHFL", "note": "[S20Q]", "protein stability index": 2.88},
      {"variant": "LLTITKAHSNAISNCCFTFAGHFL", "note": "[S20A]", "protein stability index": 1.09},
      {"variant": "LLTITKAHSNAISNCCFTFCGHFL", "note": "[S20C]", "protein stability index": 2.69},
      {"variant": "LLTITKAHSNAISNCCFTFVGHFL", "note": "[S20V]", "protein stability index": 2.54},
      {"variant": "LLTITKAHSNAISNCCFTFYGHFL", "note": "[S20Y]", "protein stability index": 2.36},
      {"variant": "LLTITKAHSNAISNCCFTFKGHFL", "note": "[S20K]", "protein stability index": 2.04},
      {"variant": "LLTITKAHSNAISNCCFTFNGHFL", "note": "[S20N]", "protein stability index": 2.94},
      {"variant": "LLTITNAHSNAISNCCFTFSGHFL", "note": "[K6N]", "protein stability index": 3.18},
      {"variant": "LLTITSAHSNAISNCCFTFSGHFL", "note": "[K6S]", "protein stability index": 2.44},
      {"variant": "LLTITCAHSNAISNCCFTFSGHFL", "note": "[K6C]", "protein stability index": 2.9},
      {"variant": "LLTITFAHSNAISNCCFTFSGHFL", "note": "[K6F]", "protein stability index": 3.35},
      {"variant": "LLTITKAHSNAICNCCFTFSGHFL", "note": "[S13C]", "protein stability index": 2.35},
      {"variant": "LLTITKAHSNAITNCCFTFSGHFL", "note": "[S13T]", "protein stability index": 3.02},
      {"variant": "LLTITKAHSNAIANCCFTFSGHFL", "note": "[S13A]", "protein stability index": 2.17},
      {"variant": "LLTITKAHSNAIRNCCFTFSGHFL", "note": "[S13R]", "protein stability index": 2.7},
      {"variant": "LLTITKAHSNAMSNCCFTFSGHFL", "note": "[I12M]", "protein stability index": 3.38},
      {"variant": "LLTITKAHSNAPSNCCFTFSGHFL", "note": "[I12P]", "protein stability index": 2.55},
      {"variant": "LLTITKAHSNASSNCCFTFSGHFL", "note": "[I12S]", "protein stability index": 3.14},
      {"variant": "LLTITKAHSNAESNCCFTFSGHFL", "note": "[I12E]", "protein stability index": 1.77},
      {"variant": "LLTITKAHSNAHSNCCFTFSGHFL", "note": "[I12H]", "protein stability index": 3.51},
      {"variant": "LLTITKAHSNACSNCCFTFSGHFL", "note": "[I12C]", "protein stability index": 3.49},
      {"variant": "LLTSTKAHSNAISNCCFTFSGHFL", "note": "[I4S]", "protein stability index": 2.5},
      {"variant": "LLTFTKAHSNAISNCCFTFSGHFL", "note": "[I4F]", "protein stability index": 3.68},
      {"variant": "LLTKTKAHSNAISNCCFTFSGHFL", "note": "[I4K]", "protein stability index": 2.5},
      {"variant": "LLTMTKAHSNAISNCCFTFSGHFL", "note": "[I4M]", "protein stability index": 3.12},
      {"variant": "LLTLTKAHSNAISNCCFTFSGHFL", "note": "[I4L]", "protein stability index": 2.9},
      {"variant": "LLTITKALSNAISNCCFTFSGHFL", "note": "[H8L]", "protein stability index": 3.6},
      {"variant": "LLTITKAISNAISNCCFTFSGHFL", "note": "[H8I]", "protein stability index": 2.57},
      {"variant": "LLTITKAFSNAISNCCFTFSGHFL", "note": "[H8F]", "protein stability index": 2.59},
      {"variant": "LLTITKAVSNAISNCCFTFSGHFL", "note": "[H8V]", "protein stability index": 2.58},
      {"variant": "LLTITKAWSNAISNCCFTFSGHFL", "note": "[H8W]", "protein stability index": 2.17},
      {"variant": "LLCITKAHSNAISNCCFTFSGHFL", "note": "[T3C]", "protein stability index": 2.84},
      {"variant": "LLSITKAHSNAISNCCFTFSGHFL", "note": "[T3S]", "protein stability index": 3.22},
      {"variant": "LLPITKAHSNAISNCCFTFSGHFL", "note": "[T3P]", "protein stability index": 2.97},
      {"variant": "LLYITKAHSNAISNCCFTFSGHFL", "note": "[T3Y]", "protein stability index": 2.92},
      {"variant": "LLMITKAHSNAISNCCFTFSGHFL", "note": "[T3M]", "protein stability index": 3.13},
      {"variant": "LLTITKAHSAAISNCCFTFSGHFL", "note": "[N10A]", "protein stability index": 2.64},
      {"variant": "LLTITKAHSCAISNCCFTFSGHFL", "note": "[N10C]", "protein stability index": 4.06},
      {"variant": "LLTITKAHSIAISNCCFTFSGHFL", "note": "[N10I]", "protein stability index": 3.1},
      {"variant": "LLTITKAHSPAISNCCFTFSGHFL", "note": "[N10P]", "protein stability index": 2.89},
      {"variant": "LLTITKAHSRAISNCCFTFSGHFL", "note": "[N10R]", "protein stability index": 2.99},
      {"variant": "LLTITKAHSQAISNCCFTFSGHFL", "note": "[N10Q]", "protein stability index": 3.31},
      {"variant": "LLTITKAHSNAISNCCFTFSGFFL", "note": "[H22F]", "protein stability index": 2.02},
      {"variant": "LLTITKAHSNAISNCCFTFSGAFL", "note": "[H22A]", "protein stability index": 2.56},
      {"variant": "LLTITKAHSNAISNCCFTFSGVFL", "note": "[H22V]", "protein stability index": 2.67},
      {"variant": "LLTITKAHSNAISNCCFTFSGKFL", "note": "[H22K]", "protein stability index": 2.06},
      {"variant": "LLTITKAHSNAISNCCFTFSGYFL", "note": "[H22Y]", "protein stability index": 2.93},
      {"variant": "LLTITKAHSNAISNCCFTFSGQFL", "note": "[H22Q]", "protein stability index": 2.78},
      {"variant": "LLTITKAHSNAISNCCFTFSGSFL", "note": "[H22S]", "protein stability index": 2.34},
      {"variant": "LLTITKAHSNAISNCCFTFSGWFL", "note": "[H22W]", "protein stability index": 3.16},
      {"variant": "LLTITKAHSNAISNCCFTFSGEFL", "note": "[H22E]", "protein stability index": 2.89},
      {"variant": "LLTITKAHSNAISNCCFTLSGHFL", "note": "[F19L]", "protein stability index": 2.82},
      {"variant": "LLTITKAHSNAISNCCFTHSGHFL", "note": "[F19H]", "protein stability index": 3.04},
      {"variant": "LLTITKAHSNAISNCCFTRSGHFL", "note": "[F19R]", "protein stability index": 2.66},
      {"variant": "LLTITKAHSNAISNCCFTASGHFL", "note": "[F19A]", "protein stability index": 2.16},
      {"variant": "LLTITKAHSNAISNCCFTKSGHFL", "note": "[F19K]", "protein stability index": 1.82},
      {"variant": "LLTITKAHSNAISNCCFTNSGHFL", "note": "[F19N]", "protein stability index": 2.33},
      {"variant": "LLTITKAHSNAISNCCFTQSGHFL", "note": "[F19Q]", "protein stability index": 1.63},
      {"variant": "LLTITKAHSNAISNCCFTMSGHFL", "note": "[F19M]", "protein stability index": 1.69},
      {"variant": "LLTITKAHSNAISNCCFTCSGHFL", "note": "[F19C]", "protein stability index": 2.77},
      {"variant": "LLTITKAHSNAISNCCFTISGHFL", "note": "[F19I]", "protein stability index": 2.85},
      {"variant": "LLTITKAHMNAISNCCFTFSGHFL", "note": "[S9M]", "protein stability index": 2.31},
      {"variant": "LLTITKAHINAISNCCFTFSGHFL", "note": "[S9I]", "protein stability index": 2.46},
      {"variant": "LLTITKAHRNAISNCCFTFSGHFL", "note": "[S9R]", "protein stability index": 1.77},
      {"variant": "LLTITKAHDNAISNCCFTFSGHFL", "note": "[S9D]", "protein stability index": 3.12},
      {"variant": "LLTITKAHLNAISNCCFTFSGHFL", "note": "[S9L]", "protein stability index": 2.95},
      {"variant": "LLTITKAHFNAISNCCFTFSGHFL", "note": "[S9F]", "protein stability index": 4.2},
      {"variant": "LLTITKAHHNAISNCCFTFSGHFL", "note": "[S9H]", "protein stability index": 2.45}
    ]},
    {"variants_of": "B2", "test": "protein stability index of a GFP-peptide fusion (GPS, HEK-293T) (PSI 1-6); higher = more stable", "settings": "c terminus: a fixed tail appended", "values": [
      {"variant": "HKPPEESTCFERPCFKWYTSPWSE", "note": "[K1H]", "protein stability index": 2.33},
      {"variant": "NKPPEESTCFERPCFKWYTSPWSE", "note": "[K1N]", "protein stability index": 3.12},
      {"variant": "VKPPEESTCFERPCFKWYTSPWSE", "note": "[K1V]", "protein stability index": 2.29},
      {"variant": "SKPPEESTCFERPCFKWYTSPWSE", "note": "[K1S]", "protein stability index": 2.37},
      {"variant": "FKPPEESTCFERPCFKWYTSPWSE", "note": "[K1F]", "protein stability index": 2.59},
      {"variant": "TKPPEESTCFERPCFKWYTSPWSE", "note": "[K1T]", "protein stability index": 2.52},
      {"variant": "YKPPEESTCFERPCFKWYTSPWSE", "note": "[K1Y]", "protein stability index": 1.83},
      {"variant": "DKPPEESTCFERPCFKWYTSPWSE", "note": "[K1D]", "protein stability index": 2.67},
      {"variant": "GKPPEESTCFERPCFKWYTSPWSE", "note": "[K1G]", "protein stability index": 2.34},
      {"variant": "QKPPEESTCFERPCFKWYTSPWSE", "note": "[K1Q]", "protein stability index": 2.58},
      {"variant": "CKPPEESTCFERPCFKWYTSPWSE", "note": "[K1C]", "protein stability index": 1.89},
      {"variant": "AKPPEESTCFERPCFKWYTSPWSE", "note": "[K1A]", "protein stability index": 2.38},
      {"variant": "EKPPEESTCFERPCFKWYTSPWSE", "note": "[K1E]", "protein stability index": 3.08},
      {"variant": "IKPPEESTCFERPCFKWYTSPWSE", "note": "[K1I]", "protein stability index": 1.71},
      {"variant": "RKPPEESTCFERPCFKWYTSPWSE", "note": "[K1R]", "protein stability index": 2.88},
      {"variant": "WKPPEESTCFERPCFKWYTSPWSE", "note": "[K1W]", "protein stability index": 1.75},
      {"variant": "MKPPEESTCFERPCFKWYTSPWSE", "note": "[K1M]", "protein stability index": 2.48},
      {"variant": "LKPPEESTCFERPCFKWYTSPWSE", "note": "[K1L]", "protein stability index": 2.35},
      {"variant": "PKPPEESTCFERPCFKWYTSPWSE", "note": "[K1P]", "protein stability index": 2.24},
      {"variant": "KCPPEESTCFERPCFKWYTSPWSE", "note": "[K2C]", "protein stability index": 2.75},
      {"variant": "KDPPEESTCFERPCFKWYTSPWSE", "note": "[K2D]", "protein stability index": 3.01},
      {"variant": "KFPPEESTCFERPCFKWYTSPWSE", "note": "[K2F]", "protein stability index": 2.13},
      {"variant": "KHPPEESTCFERPCFKWYTSPWSE", "note": "[K2H]", "protein stability index": 1.96},
      {"variant": "KEPPEESTCFERPCFKWYTSPWSE", "note": "[K2E]", "protein stability index": 2.79},
      {"variant": "KAPPEESTCFERPCFKWYTSPWSE", "note": "[K2A]", "protein stability index": 3.16},
      {"variant": "KGPPEESTCFERPCFKWYTSPWSE", "note": "[K2G]", "protein stability index": 2.73}
    ]}
  ]
}
